In US20090203610A1, “METHODS OF TREATING OBESITY OR DIABETES USING NT-4/5” (RINAT NEUROSCIENCE CORPORATION, priority 2004, published 2009):
Numbering of substitutions follows the chain as printed. In names and notes the source's numbering stands.

Experiments:
p75NTR = biological target: T1, p75NTR (Homo sapiens, UniProt P08138); settings: low affinity receptor (LNGFR, p75NTR); cited from earlier work
T1 sequence (P08138 29-427): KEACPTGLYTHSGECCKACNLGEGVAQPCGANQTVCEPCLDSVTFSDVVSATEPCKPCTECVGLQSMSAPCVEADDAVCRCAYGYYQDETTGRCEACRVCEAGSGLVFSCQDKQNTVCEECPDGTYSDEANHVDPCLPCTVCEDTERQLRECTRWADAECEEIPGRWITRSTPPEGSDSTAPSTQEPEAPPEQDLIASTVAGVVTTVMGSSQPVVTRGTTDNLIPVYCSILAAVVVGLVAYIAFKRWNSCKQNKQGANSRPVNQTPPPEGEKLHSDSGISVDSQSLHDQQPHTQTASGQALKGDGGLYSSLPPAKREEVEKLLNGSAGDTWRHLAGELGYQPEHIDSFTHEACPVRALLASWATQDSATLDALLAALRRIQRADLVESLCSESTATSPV

human TrkC = biological target: T2, human TrkC (Homo sapiens, UniProt Q16288); assay: Receptor tyrosine phosphorylation in trkC expressing cell line; assay type: cell-based
T2 construct: expressed in transfected cells
T2 sequence (Q16288 32-839): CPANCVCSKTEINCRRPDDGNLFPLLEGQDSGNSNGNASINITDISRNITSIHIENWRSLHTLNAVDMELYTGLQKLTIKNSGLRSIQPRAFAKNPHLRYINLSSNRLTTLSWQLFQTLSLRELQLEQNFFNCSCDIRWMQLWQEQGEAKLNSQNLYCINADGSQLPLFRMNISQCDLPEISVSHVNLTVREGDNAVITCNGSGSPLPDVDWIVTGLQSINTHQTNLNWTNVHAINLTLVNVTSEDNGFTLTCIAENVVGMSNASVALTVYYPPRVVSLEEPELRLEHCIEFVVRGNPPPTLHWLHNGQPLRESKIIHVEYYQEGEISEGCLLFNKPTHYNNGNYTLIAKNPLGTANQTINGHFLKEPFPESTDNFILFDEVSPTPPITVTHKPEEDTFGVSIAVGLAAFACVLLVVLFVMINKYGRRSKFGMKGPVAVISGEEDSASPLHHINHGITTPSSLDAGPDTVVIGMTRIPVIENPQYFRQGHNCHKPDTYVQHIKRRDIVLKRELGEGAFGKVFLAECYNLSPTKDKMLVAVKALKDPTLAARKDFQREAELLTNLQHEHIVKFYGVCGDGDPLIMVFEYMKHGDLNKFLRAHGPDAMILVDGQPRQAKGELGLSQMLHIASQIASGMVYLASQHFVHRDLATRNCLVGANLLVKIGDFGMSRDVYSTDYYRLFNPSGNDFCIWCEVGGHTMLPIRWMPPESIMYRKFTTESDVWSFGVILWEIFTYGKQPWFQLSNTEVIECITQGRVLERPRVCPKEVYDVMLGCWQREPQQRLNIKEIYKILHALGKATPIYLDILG
Description: (§1) Assays of TrkB specific activation by pegylated NT-4/5: Stable cell lines expressing human TrkA, TrkB or TrkC were used to determine the functional activity, i.e. receptor phosphorylation, of NT-4/5 and pegylated NT-4/5 as previously described (Sadick et al. Experimental Cell Research 234: 354-361, 1997).
as §1, with “and different forms of” for “and”

DIO mice [1] = assay: NT-4/5 versus BDNF on body weight and food intake of DIO mice (Example 10); assay type: in vivo; settings: 2 mg/kg i.v.
Description: (§2) Test animals: Mice with diet induced obesity (DIO) were used in this study. 22 male C57BL/6J mice were weaned at 4 weeks of age. Immediately after weaning they were put on 58% high fat diet (D12331i, Research Diet) through out the study. The DIO mice at 13 weeks of age weighing in the range of 28-40 g were used in this study.
Administration of NT-4/5 and BDNF: NT-4/5 was produced was produced as described in U.S. Pat. No. 6,184,360. The recombinant human BDNF was obtained from PeproTech Inc. (Rocky Hill, N.J.).
The mice were divided into 3 groups of equivalent body weight distribution (7-8 mice per group). Each group received 2 weekly intravenous doses of either vehicle, 2 mg/kg of NT-4/5 or 2 mg/kg of BDNF, respectively. Body weight and food intake were taken the day before treatment started (day 0) and followed subsequently on a daily basis.

human TrkB = biological target: T3, human TrkB (Homo sapiens, UniProt Q16620); assay: Receptor tyrosine phosphorylation (KIRA) in TrkB expressing cell line; assay type: cell-based
T3 construct: expressed in transfected cells
T3 sequence (Q16620 32-822): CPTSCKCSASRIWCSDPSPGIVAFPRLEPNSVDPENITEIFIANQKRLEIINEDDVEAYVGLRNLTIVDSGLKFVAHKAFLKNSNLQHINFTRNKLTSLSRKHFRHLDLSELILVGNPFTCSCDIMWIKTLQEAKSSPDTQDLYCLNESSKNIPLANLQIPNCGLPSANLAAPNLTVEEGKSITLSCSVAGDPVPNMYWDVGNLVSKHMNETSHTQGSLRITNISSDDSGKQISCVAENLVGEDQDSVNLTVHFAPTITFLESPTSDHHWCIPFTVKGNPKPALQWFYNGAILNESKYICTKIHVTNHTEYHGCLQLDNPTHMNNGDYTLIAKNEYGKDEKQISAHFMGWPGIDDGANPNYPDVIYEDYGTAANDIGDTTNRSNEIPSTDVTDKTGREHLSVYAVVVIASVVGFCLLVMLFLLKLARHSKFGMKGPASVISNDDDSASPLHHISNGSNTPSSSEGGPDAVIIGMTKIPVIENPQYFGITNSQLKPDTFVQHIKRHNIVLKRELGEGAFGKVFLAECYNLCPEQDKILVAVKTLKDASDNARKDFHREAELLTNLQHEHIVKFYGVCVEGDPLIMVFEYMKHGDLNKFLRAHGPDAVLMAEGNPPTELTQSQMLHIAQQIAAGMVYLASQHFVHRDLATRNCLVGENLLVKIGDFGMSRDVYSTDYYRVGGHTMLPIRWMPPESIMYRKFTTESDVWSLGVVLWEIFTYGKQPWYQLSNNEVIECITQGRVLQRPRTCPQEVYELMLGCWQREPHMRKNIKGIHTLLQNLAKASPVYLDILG
Description: Method of making pegylated NT-4/5 (S50C): The native form of NT-4/5 used in this study was produced according to the method described in U.S. Pat. No. 6,184,360. A site-directed pegylated NT-4/5 was also produced. The structure of NT-4/5 in complex with domain 5 of TrkB was examined to find amino acid side chains that would be surface available and unlikely to interfere with natural disulfide bonds and also unlikely to interfere in either the interactions between the monomer subunits of NT-4/5 or the TrkB domain 5 to create a PEG attaching site. […] […] Mutant proteins were expressed in E. coli, solubilized, extracted, purified and refolded as the native NT-4/5. To pegylate the refolded NT4-S50C, NT4-Q105C, and NT-4-E67C, first a mild reduction with 0.1 mM DTT (dithiothreitol) was performed. Excess DTT was removed by dialysis against 50 mM sodium acetate at pH 6, then a 5 molar excess of mPEG-maleimide (M. W. of 10,000 Da, SunBio, Inc., South Korea) was incubated with the protein at 37° C. for several days with gentle agitation. Pegylated protein, non-pegylated protein and unreacted PEG were separated via ion exchange or size exclusion chromatography.
as §1
as §1, with “and different forms of” for “and”

human TrkA = biological target: T4, human TrkA (Homo sapiens, UniProt P04629); assay: Receptor tyrosine phosphorylation in trkA expressing cell line; assay type: cell-based
T4 construct: expressed in transfected cells
T4 sequence (P04629 33-796): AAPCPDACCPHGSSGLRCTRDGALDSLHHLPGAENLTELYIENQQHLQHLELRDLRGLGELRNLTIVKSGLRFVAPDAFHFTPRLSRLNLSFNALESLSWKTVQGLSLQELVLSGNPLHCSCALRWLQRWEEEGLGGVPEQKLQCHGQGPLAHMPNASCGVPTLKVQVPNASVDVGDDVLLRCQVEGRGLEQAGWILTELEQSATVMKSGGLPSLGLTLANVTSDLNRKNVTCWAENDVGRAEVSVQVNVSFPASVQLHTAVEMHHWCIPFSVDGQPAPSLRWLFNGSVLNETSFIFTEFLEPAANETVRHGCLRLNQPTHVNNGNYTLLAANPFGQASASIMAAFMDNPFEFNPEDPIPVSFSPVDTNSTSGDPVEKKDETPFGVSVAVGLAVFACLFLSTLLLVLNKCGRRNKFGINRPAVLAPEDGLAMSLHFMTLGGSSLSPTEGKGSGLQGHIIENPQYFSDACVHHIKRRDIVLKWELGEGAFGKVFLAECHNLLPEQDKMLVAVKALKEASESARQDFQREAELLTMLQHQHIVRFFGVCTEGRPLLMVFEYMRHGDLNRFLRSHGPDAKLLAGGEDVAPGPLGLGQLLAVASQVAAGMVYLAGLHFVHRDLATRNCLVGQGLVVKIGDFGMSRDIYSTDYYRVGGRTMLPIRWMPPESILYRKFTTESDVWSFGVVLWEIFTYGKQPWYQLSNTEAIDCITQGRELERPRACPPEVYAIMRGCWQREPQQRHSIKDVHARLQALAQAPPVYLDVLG
Description: as §1
as §1, with “and different forms of” for “and”

[2] = test system: NONcNZO-10 polygenic obese mice; assay: Pegylated NT-4/5 cysteine mutant on body weight, food intake, glucose, triglyceride in NONcNZO-10 mice (Example 6); assay type: in vivo; settings: single subcutaneous injection of 1 mg/kg
Method: Test animals: 30 male NONcNZO-10 polygenic obese mice at 10 weeks of age weighing in the range of 27-32 g were used in this study.
Administration of NT-4/5 and pegylated NT-4/5: The mice were divided into 4 groups of equivalent body weight distribution (7-8 mice per group). Each group received on the first day (day 1) of the study one and the only dose of either vehicle alone, 1 mg/kg of NT-4/5 or 1 mg/kg of PEG-NT4-S50C, respectively. A final group received a daily subcutaneous dose of 1 mg/kg of NT-4/5 from day 1 to day 5, then from day 7 to day 9. On day 9 after the treatment started, blood samples were collected to determine serum glucose and triglyceride levels. Body weight and food intake were monitored 5 days a week through out the entire study.

DIO mice [3] = assay: Weekly intravenous pegylated G1S NT-4/5 versus WT NT-4/5 on body weight and food intake in DIO mice (Example 8); assay type: in vivo
Description: as §2, with “29” for “22”, “weaning,” for “weaning”
Administration of NT-4/5 and pegylated NT-4/5: NT-4/5 was obtained from Genentech Inc. or produced as described in U.S. Pat. No. 6,184,360. Pegylated NT-4/5 was produced as follows: A mutation was introduced by changing the glycine 1 position of mature human NT-4/5 sequence to serine, resulting in a mutant form of NT-4/5 (NT4-G1S). NT4-G1S protein was expressed in E. coli, solubilized, extracted, purified and refolded as described above. Refolded NT4-G1S was dialyzed into 50 mM sodium phosphate buffer at pH 6.8 and treated with 1.5 molar excess sodium meta-periodate for 10 minutes to oxidize the N-terminal serine (or threonine) residue to an aldehyde. Remaining periodate was removed by dialysis against 30 mM sodium acetate at pH 4.5. The exact concentration of NT4-G1S was determined and a 2 to 4 fold molar excess of 20K-m-PEG-HZ (methoxy polyethylene glycol hydrazide) was added. The reaction was incubated at 37° C. for several days with gentle agitation. Unconjugated PEG, pegylated NT4-G1S and non-pegylated NT4-G1S were separated via ion exchange or size exclusion chromatography.
The mice were divided into 3 groups of equivalent body weight and baseline blood glucose distribution (7-8 mice per group). Each group received four weekly intravenous doses (on day 1, 8, 15 and 22) of either vehicle, 2 mg/kg of NT-4/5 or 2 mg/kg of pegylated G1S NT-4/5 respectively. Body weight and food intake were monitored 5 days per week through out the entire study.

For “NGF: nerve growth factor, control [reference compound]”, the Kd (p75NTR) is listed as 2 nM.

In the case of “NT-3: neurotrophin-3, control activating trkC expressing cells [reference compound]”, the “receptor tyrosine phosphorylation of trkC-expressing cell line” value (human TrkC) is given as “activated trkC expressing cells” and the Kd (p75NTR) is given as 2 nM.

B1: BDNF: recombinant human brain-derived neurotrophic factor from PeproTech Inc. (protein, UniProt P23560 19-247, looked up)
Neurotrophic factor BDNF …: APMKEANIRGQGGLAYPGVRTHGTLESVNGPKAGSRGLTSLADTFEHVIEELLDEDQKVRPNEENNKDADLYTSRVMLSSQVPLEPPLLFLLEEYKNYLDAANMSMRVRRHSDPARRGELSVCDSISEWVTAADKKTAVDMSGGTVTVLEKVPVSKGQLKQYFYETKCNPMGYTKEGCRGIDKRHWNSQCRTTQSYVRALTMDSKKRIGWRFIRIDTSCVCTLTIKRGR
In the case of B1, the “body weight on day 2” value (DIO mice [1]) is listed as “did not significantly reduce body weigh”, the “food intake on day 2” value (DIO mice [1]) is listed as “did not significantly reduce food intake” and the Kd (p75NTR) is listed as 2 nM.

B2: PEG-NT4-S50C: human NT-4/5 with serine 50 changed to cysteine, pegylated with mPEG-maleimide (10,000 Da) (conjugate)
chain: GVSETAPASRRGELAVCDAVSGWVTDRRTAVDLRGREVEVLGEVPAAGGCPLRQYFFETRCKADNAEEGGPGAGGGGCRGVDRRHWVSECKAKQSYVRALTADAQGRVGWRWIRIDTACVCTLLSRTGRA
With B2 the “receptor tyrosine phosphorylation of TrkB-expressing cell line” value (human TrkB) was “increased receptor tyrosine phosphorylation”, the “receptor tyrosine phosphorylation of trkA-expressing cell line” value (human TrkA) was “did not increase receptor tyrosine phosphorylation” and the “receptor tyrosine phosphorylation of trkC-expressing cell line” value (human TrkC) was “did not increase receptor tyrosine phosphorylation”. The “body weight” value [2] was “significantly reduced”, the “food intake” value [2] was “significantly reduced” and the “blood glucose level” value ([2]; day 9) was “did not significantly reduce”. For the same molecule, the “triglyceride level” value ([2]; day 9) was “did not significantly reduce”.

B3: pegylated G1S NT-4/5: NT4-G1S (glycine 1 to serine) pegylated with 20K-m-PEG-HZ; 1PEG or 2PEG form not stated (conjugate, UniProt P34130 81-210, looked up, variant G1S)
Neurotrophin-4: B2 chain with G1S, C50S
modifications: 20K-m-PEG-HZ
In the case of B3, the “body weight after the first single dose” value (DIO mice [3]; 2 mg/kg i.v.) is reported as “more effective in reducing body weight”, the “food intake after the first single dose” value (DIO mice [3]; 2 mg/kg i.v.) is reported as “more effective in reducing food intake than WT NT-4/5” and the “body weight, pairwise difference with the vehicle control group” value (DIO mice [3]; 2 mg/kg i.v. on day 1, 8, 15, 22, Bonferroni posttests) is reported as “significant pairwise differences”. The “time to body weight recovery after each weekly dosing” value (DIO mice [3]; 2 mg/kg i.v. weekly) was 3 to 4 days.
